The target in assay [1] is T1, soluble GFRα-1 IgG1-Fc fusion protein (GFRα-1 amino acids 27 to 427 fused to human IgG1-Fc, from CHO cells) (human, UniProt P56159 27-427).
T1 construct: range 27-427; The 17 amino acid CD33 signal peptide of the vector is left out; also called GFRα1-Fc; not shown: 243 amino acid COOH-terminal human IgG1-Fc fusion domain of vector Signal pIg plus (R&D Systems); Its exact limits and a
T1 sequence (looked up): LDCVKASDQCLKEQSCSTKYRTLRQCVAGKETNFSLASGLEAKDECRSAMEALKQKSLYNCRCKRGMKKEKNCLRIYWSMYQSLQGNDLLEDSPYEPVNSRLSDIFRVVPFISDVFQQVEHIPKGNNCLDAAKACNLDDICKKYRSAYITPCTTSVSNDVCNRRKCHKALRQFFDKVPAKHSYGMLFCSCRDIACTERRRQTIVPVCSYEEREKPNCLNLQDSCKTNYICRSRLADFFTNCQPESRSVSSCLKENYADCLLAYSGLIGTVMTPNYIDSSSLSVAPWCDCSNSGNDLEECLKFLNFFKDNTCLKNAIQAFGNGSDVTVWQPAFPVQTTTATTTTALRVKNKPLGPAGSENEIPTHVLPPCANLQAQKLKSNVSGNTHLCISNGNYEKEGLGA
As to the kind of experiment: SPR (BIAcore 3000), enovin immobilized, soluble GFRα-Fc in flow. The method, then: (§1) Surface plasmon resonance (SPR) experiments were performed at 25° C. using a BIAcore 3000 instrument. Analyses were performed with enovin and NGF as immobilized ligands. The carboxylated matrix of a Fl sensor chip was first activated with a 1:1 mixture of 400 mM N-ethyl-N-(dimethylaminopropyl)-carbodiimide and 100 mM N-hydroxy-succinimide for 10 min. Than, recombinant enovin and NGF were applied onto the activated surface in […] acetate buffer, pH 4.5 at a flow rate of 5 μl/min. Unoccupied reactive groups were inactivated with 1 M ethanolamine hydrochloride. For binding experiments, soluble GFRα1-3-Fc were superfused at concentrations of 10-100 nM in HEPES buffered saline (150 mM NaCl, 3.5 mM EDTA, 0.05% P-20, 10 mM HEPES, pH 7.4) at a flow rate of 10 μl/min. The association was monitored for 3 min and dissociation for 1 min, followed by regeneration with 5 mM NaOH. Dissociation was initiated by superfusion with HEPES buffered saline. A BIAcore evaluation software, 3.0 was used to calculate the association rate (kₐ), dissociation rate (kd) and the equilibrium dissociation constants (KD calculated as kd/Kₐ).
In general terms: In SPR one partner is held on a chip, and binding of the other changes the refractive index at the surface.

The target in assay [2] is T2, soluble GFRα-2 IgG1-Fc fusion protein (GFRα-2 amino acids 20 to 431 fused to human IgG1-Fc, from CHO cells) (human, UniProt O00451 20-431).
T2 construct: range 20-431; The 17 amino acid CD33 signal peptide of the vector is left out; also called GFRα2-Fc; not shown: 243 amino acid COOH-terminal human IgG1-Fc fusion domain of vector Signal pIg plus (R&D Systems); Its exact limits and a
T2 sequence (looked up): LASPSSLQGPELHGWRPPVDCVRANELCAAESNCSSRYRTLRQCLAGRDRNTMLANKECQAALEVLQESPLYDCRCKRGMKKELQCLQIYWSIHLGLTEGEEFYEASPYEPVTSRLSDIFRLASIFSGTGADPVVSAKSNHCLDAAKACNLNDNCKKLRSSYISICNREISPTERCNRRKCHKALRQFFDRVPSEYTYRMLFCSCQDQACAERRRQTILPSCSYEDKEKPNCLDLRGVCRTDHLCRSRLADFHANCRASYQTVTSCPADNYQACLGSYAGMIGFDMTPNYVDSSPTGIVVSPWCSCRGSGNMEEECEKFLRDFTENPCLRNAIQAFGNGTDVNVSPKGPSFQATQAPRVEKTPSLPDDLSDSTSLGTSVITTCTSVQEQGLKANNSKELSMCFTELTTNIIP
Described as above. How it is done: as §1

Assay [3] deals with recombinant enovin (6xHis-tagged mature human Enovin expressed from plasmid hEVNmat/pRSETB in E. coli BL21(DE3), refolded) (human). Briefly: SPR (BIAcore 3000, 25 C), enovin immobilized, soluble GFRα3-Fc in flow at three concentrations.
The target is the same in assay [4]. Briefly: SPR (BIAcore 3000, 25 C), enovin immobilized, soluble GFRα3-Fc in flow; KD calculated as kd/ka.

Here are results for two molecules from patent US20110201552A1 (Janssen / Centocor, published 2011).

B1: recombinant enovin (6xHis-tagged mature human Enovin expressed from plasmid hEVNmat/pRSETB in E. coli BL21(DE3), refolded) (ligand)
chain: MRGSHHHHHHGMASMTGGQQMGRDLYDDDDKDPAGGPGSRARAAGARGCRLRSQLVPVRALGLGHRSDELVRFRFCSGSCRRARSPHDLSLASLLGAGALRPPPGSRPVSQPCCRPTRYEAVSFMDVNSTWRTVDRLSATACGCLG
notes: The construct codes for a 146 amino acid protein: 33 leader and tag residues plus 113 residues of mature enovin; also called immobilized enovin
In the case of B1, the binding result in assay [1] and in assay [2] was “no binding (tested: 10-100 nM)” throughout.

B2: soluble GFRα-3 IgG1-Fc fusion protein (GFRα-3 amino acids 28 to 371 fused to human IgG1-Fc, from CHO cells) (Fc fusion, UniProt O60609 28-371, looked up, not shown: a dimerising Fc or GST)
chain: LAAGDPLPTESRLMNSCLQARRKCQADPTCSAAYHHLDSCTSSISTPLPSEEPSVPADCLEAAQQLRNSSLIGCMCHRRMKNQVACLDIYWTVHRARSLGNYELDVSPYEDTVTSKPWKMNLSKLNMLKPDSDLCLKFAMLCTLNDKCDRLRKAYGEACSGPHCQRHVCLRQLLTFFEKAAEPHAQGLLLCPCAPNDRGCGERRRNTIAPNCALPPVAPNCLELRRLCFSDPLCRSRLVDFQTHCHPMDILGTCATEQSRCLRAYLGLIGTAMTPNFVSNVNTSVALSCTCRGSGNLQEECEMLEGFFSHNPCLTEAIAAKMRFHSQLFSQDWPHPTFAVMAHQ
As for B2, in assay [3], the off-rate (koff) was found to be 0.000508 s⁻¹ and the kon came to 165000 M⁻¹ s⁻¹. In assay [4], the Kd was 3.1 nM.

The term koff denotes a measure of how fast the partners let go of each other. In general, kon refers to the rate constant with which the complex forms. What is called Kd is the constant that tells how readily two partners part at equilibrium.
